This note sets out measurements from US20220401523A1.

Assay [1] concerns the target human glucagon-like peptide-1 (GLP-1) receptor (human) (UniProt P43220). Nature of the assay: cell-based or functional assay.
The target in assay [2] is human FGFR1c (FGF receptor 1c isoform) together with human beta-Klotho (KLB) (human), P11362. Nature of the assay: cell-based or functional assay.
Sequence of human FGFR1c (FGF receptor 1c isoform) together with human beta-Klotho (KLB) (human), P11362 (P11362 22-822, chain 1 of 2): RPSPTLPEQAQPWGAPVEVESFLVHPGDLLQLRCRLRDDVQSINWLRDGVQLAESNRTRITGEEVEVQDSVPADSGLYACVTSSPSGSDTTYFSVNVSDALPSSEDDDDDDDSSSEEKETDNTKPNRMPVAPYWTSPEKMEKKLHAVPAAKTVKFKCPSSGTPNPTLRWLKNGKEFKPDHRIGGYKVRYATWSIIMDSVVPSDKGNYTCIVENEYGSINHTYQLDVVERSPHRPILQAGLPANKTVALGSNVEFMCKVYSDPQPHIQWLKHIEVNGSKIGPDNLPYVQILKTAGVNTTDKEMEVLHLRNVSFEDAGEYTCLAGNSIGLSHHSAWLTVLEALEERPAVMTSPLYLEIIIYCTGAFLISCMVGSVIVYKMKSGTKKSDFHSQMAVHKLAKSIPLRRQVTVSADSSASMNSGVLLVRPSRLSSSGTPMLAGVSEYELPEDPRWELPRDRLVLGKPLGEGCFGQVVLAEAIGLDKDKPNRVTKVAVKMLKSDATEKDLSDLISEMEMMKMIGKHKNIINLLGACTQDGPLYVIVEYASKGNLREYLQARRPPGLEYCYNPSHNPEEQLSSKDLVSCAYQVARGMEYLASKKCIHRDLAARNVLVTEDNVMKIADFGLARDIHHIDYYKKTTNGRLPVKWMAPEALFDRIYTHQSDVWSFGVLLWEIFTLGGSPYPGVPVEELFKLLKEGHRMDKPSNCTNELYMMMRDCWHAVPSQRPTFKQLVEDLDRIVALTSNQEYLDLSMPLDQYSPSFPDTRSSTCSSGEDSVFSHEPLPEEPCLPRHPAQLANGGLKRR
Sequence of human FGFR1c (FGF receptor 1c isoform) together with human beta-Klotho (KLB) (human), P11362 (Q86Z14 whole entry, chain 2 of 2, further chain, canonical isoform): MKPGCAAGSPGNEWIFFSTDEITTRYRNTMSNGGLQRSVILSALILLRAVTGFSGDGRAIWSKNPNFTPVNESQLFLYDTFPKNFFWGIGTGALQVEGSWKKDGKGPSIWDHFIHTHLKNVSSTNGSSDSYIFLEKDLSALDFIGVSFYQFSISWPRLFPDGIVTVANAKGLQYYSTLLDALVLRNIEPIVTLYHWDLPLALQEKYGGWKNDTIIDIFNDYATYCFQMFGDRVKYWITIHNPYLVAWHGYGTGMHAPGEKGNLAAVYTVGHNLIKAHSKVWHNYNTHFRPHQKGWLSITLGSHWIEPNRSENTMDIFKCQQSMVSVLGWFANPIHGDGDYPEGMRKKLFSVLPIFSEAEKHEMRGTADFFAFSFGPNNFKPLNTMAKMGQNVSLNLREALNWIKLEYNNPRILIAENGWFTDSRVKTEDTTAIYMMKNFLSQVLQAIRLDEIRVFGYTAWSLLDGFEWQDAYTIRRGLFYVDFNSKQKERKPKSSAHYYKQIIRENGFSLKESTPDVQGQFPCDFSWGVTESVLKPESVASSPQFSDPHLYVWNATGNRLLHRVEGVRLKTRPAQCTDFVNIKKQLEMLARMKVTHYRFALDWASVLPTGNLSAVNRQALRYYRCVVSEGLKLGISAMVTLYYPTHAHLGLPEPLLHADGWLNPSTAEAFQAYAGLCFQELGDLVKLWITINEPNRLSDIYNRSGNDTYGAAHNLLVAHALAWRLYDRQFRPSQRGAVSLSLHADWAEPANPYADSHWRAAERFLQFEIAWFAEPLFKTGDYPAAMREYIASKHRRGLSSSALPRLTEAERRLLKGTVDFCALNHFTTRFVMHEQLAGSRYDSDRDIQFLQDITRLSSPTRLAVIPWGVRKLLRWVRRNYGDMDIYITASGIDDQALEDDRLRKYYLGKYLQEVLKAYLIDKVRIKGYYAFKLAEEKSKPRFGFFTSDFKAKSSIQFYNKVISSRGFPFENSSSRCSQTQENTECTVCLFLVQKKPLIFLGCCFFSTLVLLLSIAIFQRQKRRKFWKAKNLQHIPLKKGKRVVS

Sequence of UniProt P43220 (P43220 24-463): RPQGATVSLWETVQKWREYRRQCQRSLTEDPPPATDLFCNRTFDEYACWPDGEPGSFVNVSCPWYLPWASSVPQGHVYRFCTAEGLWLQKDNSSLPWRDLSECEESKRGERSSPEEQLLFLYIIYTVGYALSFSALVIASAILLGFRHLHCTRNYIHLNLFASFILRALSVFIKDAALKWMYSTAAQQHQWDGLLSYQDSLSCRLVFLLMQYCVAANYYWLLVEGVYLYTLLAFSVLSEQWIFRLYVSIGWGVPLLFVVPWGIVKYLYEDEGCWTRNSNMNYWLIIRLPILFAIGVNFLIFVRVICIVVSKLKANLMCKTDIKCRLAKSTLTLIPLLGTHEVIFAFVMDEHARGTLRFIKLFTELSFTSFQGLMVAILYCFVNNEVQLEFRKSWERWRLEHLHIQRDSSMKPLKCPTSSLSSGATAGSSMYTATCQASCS

Take “GLP1(7-36) A8G, V16L, S18K, Y19Q, G22E, Q23E, A25V, K26Q, E27L, A30E, V33E, K34A, G35T, R36G, insPSS (Fc fusion)”: in assay [1], the EC50 of cAMP response (HTRF) was determined as 0.134 nM and the Ratio GLP-1R agonistic activity: native GLP-1(7-36)/tested GLP-1R agonist stood at 174 fold.
The like results for “GLP1(7-36) A8G, V16L, S18I, Y19Q, E21D, G22E, Q23E, A25V, K26R, E27L, A30E, V33L, K34A, G35T, R36G, (Fc fusion)” were, in that order, 0.0605 nM and 78.6 fold.
The like results for “GLP1(7-36) A8G, V16L, S18I, Y19Q, E21D, G22E, Q23E, A25V, K26R, E27L, A30E, V33E, K34A, G35T, R36G, (Fc fusion)” were, in that order, 0.675 nM and 877 fold.
The like results for “GLP1(7-36) A8G, V16L, S18K, Y19Q, E21D, G22E, Q23E, A25V, K26Q, E27L, A30E, V33L, K34A, G35T, R36G, (Fc fusion)” were, in that order, 0.173 nM and 225 fold.

B1: mature human wild-type FGF21, FGF21(His29-Ser209), Q9NSA1 29-209 (ligand)
chain: HPIPDSSPLLQFGGQVRQRYLYTDDAQQTEAHLEIREDGTVGGAADQSPESLLQLKALKPGVIQILGVKTSRFLCQRPDGALYGSLHFDPEACSFRELLLEDGYNVYQSEAHGLPLHLPGNKSPHRDPAPRGPARFLPLPGLPPAPPEPPGILAPQPPDVGSSDPLSMVGPSQGRSPSYAS
In assay [2], B1 showed a pERK ICW EC50 (downstream activation of the MAP kinase ERK1/2, In-Cell Western) of 0.18 nmol/L and a pFGFR ICW EC50 (FGF21 receptor autophosphorylation, In-Cell Western) of 4.8 nmol/L.
